This note sets out measurements from US10800847.

The target in assay [1] is HLA-A*8001 (A80) single antigen on Luminex beads (human). As to the kind of experiment: Luminex single antigen bead assay, iBeads vs regular beads, IVIg 1:4.
In assay [2] the target is HLA-A*6802 (A68) single antigen on Luminex beads (human). The assay is described as above.
For assay [3], the target named is HLA-A*6901 (A69) single antigen on Luminex beads (human). The description is as above.
The target in assay [4] is HLA-A*3201 (A32) single antigen on beads (human). Description: Luminex, iBead vs regular bead, IVIg 1:4.
Assay [5] deals with HLA-A*2902 (A29) single antigen on beads (human). As to the kind of experiment: Luminex, iBead vs regular bead, IVIg 1:4.
Assay [6] deals with HLA-A*6601 (A66) single antigen on beads (human). As to the kind of experiment: Luminex, iBead vs regular bead, IVIg 1:4.
Assay [7] deals with HLA-A*3002 (A30) single antigen on beads (human). Description: Luminex, iBead vs regular bead, IVIg 1:4.
For assay [8], the target named is HLA-Cw*0801 (Cw8) (human). Description: Luminex, iBead vs regular bead MFI, 1:4.
Assay [9] has as its target HLA-Cw*0501 (Cw5) (human). As to the kind of experiment: Luminex, iBead vs regular bead MFI, 1:4.
The target of assay [10] is HLA-Cw*0304 (Cw10) (human). As to the kind of experiment: Luminex, iBead vs regular bead MFI, 1:4.
Assay [11] concerns the target HLA-Cw*1203 (Cw12) (human). As to the kind of experiment: Luminex, iBead vs regular bead MFI, 1:4.
Assay [12] deals with HLA-Cw*1402 (Cw14) (human). As to the kind of experiment: Luminex, iBead vs regular bead MFI, 1:4.
Assay [13] deals with HLA-Cw*0303 (Cw9) (human). As to the kind of experiment: Luminex, iBead vs regular bead MFI, 1:4.
Assay [14] concerns the target HLA-Cw*0401 (Cw4) (human). As to the kind of experiment: Luminex, iBead vs regular bead MFI, 1:4.
For assay [15], the target named is HLA-Cw*1502 (Cw15) (human). Description: Luminex, iBead vs regular bead MFI, 1:4.
The target of assay [16] is HLA-Cw*1701 (Cw17) (human). As to the kind of experiment: Luminex, iBead vs regular bead MFI, 1:4.
The target in assay [17] is HLA-Cw*0702 (Cw7) (human). As to the kind of experiment: Luminex, iBead vs regular bead MFI, 1:4.
In assay [18] the target is HLA-Cw*0302 (Cw10) (human). Description: Luminex, iBead vs regular bead MFI, 1:4.
In assay [19] the target is HLA-Cw*0602 (Cw6) (human). Description: Luminex, iBead vs regular bead MFI, 1:4.
Assay [20] deals with HLA-Cw*0102 (Cw1) (human). Description: Luminex, iBead vs regular bead MFI, 1:4.
Assay [21] addresses HLA-A*3303 (A33) single antigen on beads (human). Description: Luminex single-antigen regular beads (#7), IVIg 1:4.
In assay [22] the target is HLA-A*6801 (A68) single antigen on beads (human). Described as above.
The target of assay [23] is HLA-A*3101 (A31) single antigen on beads (human). The description is as above.
The target of assay [24] is HLA-A*3201 (A32) single antigen on beads (human). The description is as above.
Assay [25] addresses HLA-A*2902 (A29) single antigen on beads (human). The description is as above.
The target in assay [26] is HLA-A*6601 (A66) single antigen on beads (human). Described as above.
In assay [27] the target is HLA-A*3301 (A33) single antigen on beads (human). Described as above.
The target of assay [28] is HLA-A*3002 (A30) single antigen on beads (human). The description is as above.
The target in assay [29] is HLA-A*3402 (A34) single antigen on beads (human). Described as above.
Assay [30] deals with HLA-B*2705 (B27) single antigen on Luminex beads (human). As to the kind of experiment: Luminex single antigen, regular beads (#7), IVIg 1:8.
Assay [31] has as its target HLA-B*3501 (B35) single antigen on Luminex beads (human). Described as above.
The target of assay [32] is HLA-B*4201 (B42) single antigen on Luminex beads (human). Described as above.
The target of assay [33] is HLA-B*2708 (B27) single antigen on Luminex beads (human). The assay is described as above.
Assay [34] concerns the target HLA-B*4002 (B61) single antigen on Luminex beads (human). The description is as above.
Assay [35] has as its target HLA-B*4701 (B47) single antigen on Luminex beads (human). The assay is described as above.
In assay [36] the target is HLA-B*4501 (B45) single antigen on Luminex beads (human). Described as above.
The target of assay [37] is HLA-B*4402 (B44) single antigen on Luminex beads (human). The assay is described as above.
Assay [38] has as its target HLA-B*4001 (B60) single antigen on Luminex beads (human). The description is as above.
The target of assay [39] is HLA-B*3801 (B38) single antigen on Luminex beads (human). Described as above.
Assay [40] concerns the target HLA-B*3901 (B39) single antigen on Luminex beads (human). Described as above.
The target in assay [41] is HLA-B*4101 (B41) single antigen on Luminex beads (human). Described as above.
Assay [42] deals with HLA-B*4006 (B61) single antigen on Luminex beads (human). The assay is described as above.
In assay [43] the target is HLA-B*3701 (B37) single antigen on Luminex beads (human). Described as above.

For “IVIg Sandoglobulin (Novartis, Basel, Switzerland) (antibody)”, the results for the Difference % (iBead MFI against regular bead MFI) in assay [1], in assay [2] and in assay [3] were 41%, 31% and 68%, respectively. In addition, the Difference % (iBead MFI vs regular bead MFI) in assay [4] turned out to be 202%; in [5], 366%; in [6], 742%; in assay [7] it was 202%. The Difference % in assay [8] is -42%; in assay [9] it was -42%; in [10] it was -38%; in assay [11], -35%; in assay [12] it was -59%; in assay [13], -29%. For the same substance, the Difference % in assay [14] was -62%; in assay [15] it was -41%; in assay [16], -29%; in assay [17] it was -62%; in [18], -49%; in assay [19] it was -60%. In addition, the Difference % in assay [20] is -49%. In addition, the MFI in assay [21] was found to be 0 MFI; in assay [22], 0 MFI; in assay [23], 0 MFI; in [24] it was 255 MFI; in [25], 200 MFI; in assay [26], 93 MFI. Further, the MFI in assay [27] is 185 MFI; in assay [28], 174 MFI; in [29], 0 MFI.

As to “Octagam (IVIg, Octapharma, Lachen, Switzerland) (antibody)”, the MFI in [30] amounted to 154 MFI; in assay [31], 964 MFI; in [32], 364 MFI; in [33], 54 MFI; in [34], 271 MFI; in assay [35], 2200 MFI. The MFI amounted to 956 MFI in [36]; 4000 MFI in assay [37]; 987 MFI in [38]; 1000 MFI in assay [39]; 0 MFI in assay [40]; 393 MFI in assay [41]. Further, the MFI in [42] worked out at 4970 MFI; in assay [43] it was 9970 MFI.
